The results in this text go back to US20120207760A1.

Settings in all cases: remark: other sources report otherwise
The target of experiment [1] is recombinant soluble homotrimeric HA of A/chicken/Vietnam/NCVD-016/08 (H5N1) (Influenza A virus A/chicken/Vietnam/NCVD-016/08 (H5N1)). As to the kind of experiment: microarray, BCC supernatant IgG, trimeric HA.
The target of experiment [2] is recombinant soluble homotrimeric HA of A/northern shoveler/California/HKWF115/07 (Influenza A virus A/northern shoveler/California/HKWF115/2007). Nature of the experiment: microarray, BCC supernatant IgG, trimeric HA.
Experiment [3] has as its target T1, recombinant homotrimeric HA, A/South Carolina/1/18 H1N1 (Influenza A virus A/South Carolina/1/18 (H1N1)). As to the kind of experiment: trimeric HA microarray, transfection set 5.
For experiment [4], the target named is T2, recombinant homotrimeric HA, A/Solomon Islands/3/06 H1N1 (Influenza A virus A/Solomon Islands/3/06 (H1N1)). As to the kind of experiment: trimeric HA microarray, transfection set 5.
For experiment [5], the target named is T3, recombinant homotrimeric HA, A/California/4/09 H1N1 (Influenza A virus A/California/4/09 (H1N1)). As to the kind of experiment: trimeric HA microarray, transfection set 5.
Experiment [6] has as its target T4, recombinant homotrimeric HA, A/Japan/305/57 H2N2 (Influenza A virus A/Japan/305/57 (H2N2)). Nature of the experiment: trimeric HA microarray, transfection set 5.
Experiment [7] has as its target T5, recombinant homotrimeric HA, A/Indonesia/5/05 H5N1 (Influenza A virus A/Indonesia/5/05 (H5N1)). Nature of the experiment: trimeric HA microarray, transfection set 4.
Experiment [8] deals with T6, recombinant homotrimeric HA, A/Wisconsin/67/05 H3N2 (Influenza A virus A/Wisconsin/67/05 (H3N2)). As to the kind of experiment: trimeric HA microarray, transfection set 4.
In experiment [9] the target is T1, recombinant homotrimeric HA, A/South …. Nature of the experiment: trimeric HA microarray, transfection set 4.
Experiment [10] concerns the target T2, recombinant homotrimeric HA, A/Solomon …. Nature of the experiment: trimeric HA microarray, transfection set 4.
For experiment [11], the target named is T3, recombinant homotrimeric HA, …. Nature of the experiment: trimeric HA microarray, transfection set 4.
The target in experiment [12] is T4, recombinant homotrimeric HA, …. As to the kind of experiment: trimeric HA microarray, transfection set 4.
Experiment [13] has as its target T7, recombinant homotrimeric HA, A/Vietnam/1203/04 H5N1 (Influenza A virus A/Vietnam/1203/04 (H5N1)). As to the kind of experiment: trimeric HA microarray, transfection set 4.
In experiment [14] the target is T5, recombinant homotrimeric HA, …. Nature of the experiment: trimeric HA microarray, transfection set 2.
For experiment [15], the target named is T6, recombinant homotrimeric HA, …. Nature of the experiment: trimeric HA microarray, transfection set 2.
Experiment [16] addresses recombinant homotrimeric HA, A/chicken/Vietnam/NCVD-016/08 H5N1 (Influenza A virus A/chicken/Vietnam/NCVD-016/08 (H5N1)). Nature of the experiment: trimeric HA microarray, transfection set 2.
For experiment [17], the target named is recombinant homotrimeric HA, A/northern shoveler/California/HKWF115/07 (Influenza A virus A/northern shoveler/California/HKWF115/2007 (H6N1)). As to the kind of experiment: trimeric HA microarray, transfection set 2.
In experiment [18] the target is T1, recombinant homotrimeric HA, A/South …. Nature of the experiment: trimeric HA microarray, transfection set 2.
Experiment [19] has as its target T2, recombinant homotrimeric HA, A/Solomon …. As to the kind of experiment: trimeric HA microarray, transfection set 2.
In experiment [20] the target is T3, recombinant homotrimeric HA, …. As to the kind of experiment: trimeric HA microarray, transfection set 2.
For experiment [21], the target named is T4, recombinant homotrimeric HA, …. Nature of the experiment: trimeric HA microarray, transfection set 2.
Experiment [22] addresses recombinant homotrimeric HA, A/common magpie/Hong Kong/5052/07 H5N1 (Influenza A virus A/common magpie/Hong Kong/5052/07 (H5N1)). As to the kind of experiment: trimeric HA microarray, transfection set 2.
Experiment [23] deals with recombinant homotrimeric HA, A/Egypt/3300-NAMRU3/08 H5N1 (Influenza A virus A/Egypt/3300-NAMRU3/08 (H5N1)). Nature of the experiment: trimeric HA microarray, transfection set 2.
Experiment [24] has as its target recombinant homotrimeric HA, A/Netherlands/219/03 H7N7 (Influenza A virus A/Netherlands/219/03 (H7N7)). As to the kind of experiment: trimeric HA microarray, transfection set 2.
In experiment [25] the target is recombinant homotrimeric HA, A/duck/Yangzhou/02/05 H8N4 (Influenza A virus A/duck/Yangzhou/02/2005 (H8N4)). Nature of the experiment: trimeric HA microarray, transfection set 2.
Experiment [26] has as its target recombinant homotrimeric HA, A/Hong Kong/1073/99 H9N2 (Influenza A virus A/Hong Kong/1073/99 (H9N2)). Nature of the experiment: trimeric HA microarray, transfection set 2.
Experiment [27] deals with recombinant homotrimeric HA, A/Hong Kong/2108/03 H9N2 (Influenza A virus A/Hong Kong/2108/03 (H9N2)). Nature of the experiment: trimeric HA microarray, transfection set 2.
Experiment [28] deals with recombinant homotrimeric HA, A/Anhui/1/05 H5N1 (Influenza A virus A/Anhui/1/05 (H5N1)). As to the kind of experiment: trimeric HA microarray, transfection set 2.
Experiment [29] concerns the target T7, recombinant homotrimeric HA, …. As to the kind of experiment: trimeric HA microarray, transfection set 2.
The target in experiment [30] is recombinant homotrimeric HA, A/swine/Ontario/01911-2/99 H4N6 (Influenza A virus A/swine/Ontario/01911-2/99 (H4N6)). Nature of the experiment: trimeric HA microarray, transfection set 2.

B1: TCN-548 (5092_P01) (antibody, V domains shown)
VH: QVQLQESGPGLVKPSETLSLTCTVSSGPMSDYYWSWIRQPPGKGLEWIGHVSVSHGGRTKSNPSVMSRVTISVETSKNQFSLKLTSVTAADTAVYYCARLNYYDRSGYHSPDGPSNNWFDPWGQGTLVTVSS
VL: not shown
On to B1, for which the Trimeric HA Binding: RLU in [1] was found to be 254 RLU; in experiment [2], 314 RLU. The Trimeric HA Binding RLU worked out at 1150 RLU in [3], 750 RLU in [4], 818 RLU in experiment [5] and 1020 RLU in [6].

B2: TCN-534 (5249_B02) (antibody, V domains shown)
VH: QVQLVQSGAEVKKPGSSVKVSCRESGGTFNGYTITWVRQAPGQGLEWMGGIIPMMGTVNYAQKLQGRVTITTDYFTKTAYMDLNNLRSEDTAMYYCVKIRYTGQQLLWGQGTLVTVSS
VL: DIQMTQSPSTLSASIGDRVTITCRASQSIASWLAWYQQKPGKAPKLLIYEAVNLESGVPSRFSGSGSGTDFTLTISSLQPDDFATYFCQHYGTISQTFGGGTKVEIK
As for B2, the Trimeric HA Binding RLU is 948 RLU in [7]; 897 RLU in experiment [8]; 11800 RLU in experiment [9]; 60 RLU in experiment [10]; 27000 RLU in experiment [11]; 14700 RLU in experiment [12]. In addition, the Trimeric HA Binding RLU in experiment [13] stood at 23700 RLU.

B3: TCN-563 (5237_B21) (antibody, V domains shown)
VH: QVQLAQSGAEVKRPGSSVKVSCTASGGIFRKNAISWVRQAPGQGLEWMGGIIAVFNTANYAQKFQGRVKITADESGNTAYMELSSLRSDDTAVYYCASHPKYFYGSGSYPDFWGQGTLVTVSS
VL: QSALTQPRSVSGSPGQSVTISCTGSSSDVGASNSVSWYQQHPGKAPKLVIYDVTERPSGVPHRFSGSKSGNTASLTVSGLQPEDEADYFCCAYGGKYLVVFGGGTKVTVL
In the case of B3, the Trimeric HA Binding RLU in experiment [14] came to 47300 RLU; in [15] it was 23700 RLU; in experiment [16] it was 36300 RLU; in experiment [17], 21900 RLU; in experiment [18], 17800 RLU; in experiment [19], 26500 RLU. The Trimeric HA Binding RLU in experiment [20] was determined as 21200 RLU; in experiment [21] it was 11200 RLU; in experiment [22] it was 52800 RLU; in experiment [23], 23900 RLU; in experiment [24], 5420 RLU; in experiment [25], 6280 RLU. Further, the Trimeric HA Binding RLU in experiment [26] stood at 49200 RLU; in experiment [27] it was 364 RLU; in experiment [28], 1570 RLU; in experiment [29], 31500 RLU.

B4: TCN-528 (5087_P17) (antibody, V domains shown)
VH: QVQLVQSGSEVKKPGASVKVSCKASGYTFTNYDINWIRQAPGQGLEWMGWINPNSGTTGSAQRFQGRVTITVDTSITTVYMELSSLRSDDTAIYYCARGRELLRLQHFLTDSQSERRDCFDPWGQGTLVTVSS
VL: DIQMTQSPSSLSASVGDRVTITCRANQDIGIYLNWYQQNPGKVPKLLLHGASSLQGGVPSRFSASGSGTDFTLTIHSLQPEDLATYYCQQSRRLPYTFGQGTRVELK
Take B4: the Trimeric HA Binding RLU was 39700 RLU in experiment [14]; 46000 RLU in experiment [15]; 22600 RLU in experiment [16]; 49200 RLU in experiment [30]; 28400 RLU in [17]; 25200 RLU in experiment [18]. For the same molecule, the Trimeric HA Binding RLU turned out to be 26900 RLU in [19]; 44600 RLU in experiment [20]; 23100 RLU in experiment [21]; 45300 RLU in [22]; 36800 RLU in experiment [23]; 47200 RLU in experiment [24]. Further, the Trimeric HA Binding RLU in experiment [25] worked out at 19800 RLU; in experiment [26], 322 RLU; in experiment [27], 33600 RLU; in experiment [28], 21200 RLU; in experiment [29], 23300 RLU.

B5: TCN-527 (5086_C06) (antibody, V domains shown)
VH: QVQLQESGPGLVKPSETLSLNCAVSGGSISNYYWSWIRQPPGKGLEWIGYISYNGRPKYNPSLTSRVTISVDTSKDQFSLELRSVTAADTALYYCARETRFGELLSPYDAFEIWGQGTMVTVSS
VL: DIQMTQSPSSLSASVGDRVTMTCRASQNIRSYLNWYQQRPGTAPKLLIYAASTLHSGVPSRFSGGGSGTDFTLTINNLQPEDFASYYCQQSYDNPQTFGQGTKVEIK
In the case of B5, the Trimeric HA Binding RLU in experiment [14] was 23400 RLU; in experiment [15] it was 35800 RLU; in experiment [16], 20100 RLU; in [30], 30100 RLU; in experiment [17], 19300 RLU; in experiment [18], 48100 RLU. In addition, the Trimeric HA Binding RLU in experiment [19] was 19700 RLU; in experiment [20] it was 21500 RLU; in experiment [21] it was 20800 RLU; in experiment [22] it was 43800 RLU; in experiment [23], 23600 RLU; in [24] it was 49100 RLU. Moreover, the Trimeric HA Binding RLU in experiment [25] is 17900 RLU; in [26], 557 RLU; in [27], 25500 RLU; in experiment [28], 15200 RLU; in experiment [29], 20600 RLU.
